Assay results as given in article PMC8569185 (Frontiers in Pharmacology, 2021).

B1: blenniorphin 1–8 (peptide)
peptide: YGGFMRRV
notes: numbers count on: the dyn A 1–17-like peptide, not the precursor; Free N-terminus and free C-terminal carboxyl as printed (NH2-...-COOH); source: synthetic peptide (Boc-based SPPS, RP-HPLC purified)
B2: blenniorphin 1–13 (peptide)
peptide: YGGFMRRVGRPEW
notes: numbers count on: the dyn A 1–17-like peptide, not the precursor; Free N-terminus and free C-terminal carboxyl as printed (NH2-...-COOH); also called blenniorphin-13; source: synthetic peptide (Boc-based SPPS, RP-HPLC purified)
B3: blenniorphin 1–17 (peptide)
peptide: YGGFMRRVGRPEWLVDS
notes: numbers count on: the dyn A 1–17-like peptide, not the precursor; Free N-terminus and free C-terminal carboxyl as printed (NH2-...-COOH); also called blenniorphin-17; source: synthetic peptide (Fmoc-based SPPS, RP-HPLC purified)

These molecules were tested against mouse KOR (Mus musculus, UniProt P33534) (assay: cell-based). Details: HEK293, read-out: Efficacy cAMP Emax ± SD.
Chain of mouse KOR (P33534 whole entry): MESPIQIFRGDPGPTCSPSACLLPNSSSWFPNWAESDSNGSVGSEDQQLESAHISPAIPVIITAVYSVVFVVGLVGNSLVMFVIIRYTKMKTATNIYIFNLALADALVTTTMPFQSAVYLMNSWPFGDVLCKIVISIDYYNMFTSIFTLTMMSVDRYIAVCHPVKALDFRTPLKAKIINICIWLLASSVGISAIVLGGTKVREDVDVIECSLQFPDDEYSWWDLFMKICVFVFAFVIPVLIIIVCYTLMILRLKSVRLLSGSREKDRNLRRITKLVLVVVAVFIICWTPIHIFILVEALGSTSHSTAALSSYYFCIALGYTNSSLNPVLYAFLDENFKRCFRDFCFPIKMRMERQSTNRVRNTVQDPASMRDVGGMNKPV
For “H-YGGFMRRVGRPEWLVDS-OH [blenniorphin 1–17]”, the Emax at 10 µM was 97.5 ± 11%.
`CSCC[C@H](NC(=O)[C@H](Cc1ccccc1)NC(=O)CNC(=O)CNC(=O)[C@@H](N)Cc1ccc(O)cc1)C(=O)N[C@@H](CCCNC(=N)N)C(=O)N[C@@H](CCCNC(=N)N)C(=O)N[C@H](C(=O)O)C(C)C` [blenniorphin 1–8] was tested, and the Emax at 10 µM was 82.4 ± 9.8%.
For H-YGGFMRRVGRPEW-OH [blenniorphin 1–13], the Emax at 10 µM was 98.5 ± 9.1%.

What follows are molecules tested against T1, mouse κ-opioid receptor (mouse, UniProt P33534 1-380) (assay: radioligand binding; displacement of [3H]-diprenorphine (1 nM) from HEK293 cell membranes stably expressing mouse KOR (6.3–7.6 µg/assay) by peptides (0.1 nM–30 µM); 50 mM Tris-HCl pH 7.4, 10 mM MgCl2, 0.1% BSA; 1.5 h at 37°C; filtration; Ki from IC50 by Cheng and Prusoff). Details: one partner purified.
T1 construct: also called KOR; mouse KOR
T1 sequence (P33534 whole entry): as above
B1 was tested, and the Ki was 3.3 nM.
B2 gave a Ki of 116 nM.
Molecule B3 has a Ki of 85.8 nM.

What follows are molecules tested against T1, mouse κ-opioid receptor (assay: cell-based or functional assay). Details: not given.
In the case of B1, the “EC50 of inhibition of forskolin-stimulated cAMP accumulation (HTRF cAMP-Gi kit), HEK293 cells stably expressing mouse KOR” value is reported as 3.6 nM and the “Emax of cAMP inhibition, normalised to 10 µM dyn A 1–13 (100%), HEK293 cells stably expressing mouse KOR” value is reported as 82.4%.
B2 was tested, and the “EC50 of inhibition of forskolin-stimulated cAMP accumulation (HTRF cAMP-Gi kit), HEK293 cells stably expressing mouse KOR” value was 5 nM and the “Emax of cAMP inhibition, normalised to 10 µM dyn A 1–13 (100%), HEK293 cells stably expressing mouse KOR” value was 98.5%.
For B3, the “EC50 of inhibition of forskolin-stimulated cAMP accumulation (HTRF cAMP-Gi kit), HEK293 cells stably expressing mouse KOR” value was 15.2 nM and the “Emax of cAMP inhibition, normalised to 10 µM dyn A 1–13 (100%), HEK293 cells stably expressing mouse KOR” value was 97.5%.

These molecules were tested against mouse KOR-EGFP (mouse, UniProt P33534 1-380) (assay: cell-based or functional assay). Details: not given.
Chain of mouse KOR-EGFP (P33534 whole entry): as above
For B1, the “extent of β-arrestin-2-Nluc recruitment to KOR-EGFP (BRET) at 10 µM peptide, relative to 10 µM dyn A 1–13 (100%)” value (“extent … relative to 10 µM dyn A 1–13 (100%)” below) was about 30 % lower than dyn A 1–13.
For B2, the “extent … relative to 10 µM dyn A 1–13 (100%)” value was about 30 % lower than dyn A 1–13.
B3 was tested, and the “extent … relative to 10 µM dyn A 1–13 (100%)” value was about 30 % lower than dyn A 1–13.
